Patent publication US20230158141A1 (YAFEI SHANGHAI BIOLOG MEDICINE SCIENCE AND TECHNOLOGY, published 2023)

T1: IL-10R1-Fc (UniProt Q13651 22-235, limits assumed)
T1 sequence (looked up): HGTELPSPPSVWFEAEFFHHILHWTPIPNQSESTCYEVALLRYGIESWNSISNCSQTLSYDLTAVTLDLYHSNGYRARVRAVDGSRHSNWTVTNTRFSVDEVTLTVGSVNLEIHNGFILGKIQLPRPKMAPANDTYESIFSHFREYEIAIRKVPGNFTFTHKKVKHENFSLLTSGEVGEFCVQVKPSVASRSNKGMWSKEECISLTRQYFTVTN


These binders were tested against T1, IL-10R1-Fc (assay: ELISA, IL-10R1-Fc coated).

Binder	Binding recovery (>60%)	Decreased fold of binding to ligand after Conjugating with S48
IL-10 Gln42Cys-R4-19 (ligand, human, UniProt P22301 19-178, looked up, R4-19 on Cys 42, mature) SPGQGTQSENSCTHFPGNLPNMLRDLRDAFSRVKTFFQMKDCLDNLLLKESLLEDFKGYLGCQALSEMIQFYLEEVMPQAENQDPDIKAHVNSLGENLKTLRLRLRRCHRFLPCENKSKAVEQVKNAFNKLQEKGIYKAMSEFDIFINYIEAYMTMKIRN	90%	–
IL-10 Gly17Cys-R4-1 (ligand, human, UniProt P22301 19-178, looked up, R4-1 on Cys 17, mature) SPGQGTQSENSCTHFPCNLPNMLRDLRDAFSRVKTFFQMKDQLDNLLLKESLLEDFKGYLGCQALSEMIQFYLEEVMPQAENQDPDIKAHVNSLGENLKTLRLRLRRCHRFLPCENKSKAVEQVKNAFNKLQEKGIYKAMSEFDIFINYIEAYMTMKIRN	90.2%	–
IL-10 Gly135Cys-R4-1 (ligand, human, UniProt P22301 19-178, looked up, R4-1 on Cys 135, mature) SPGQGTQSENSCTHFPGNLPNMLRDLRDAFSRVKTFFQMKDQLDNLLLKESLLEDFKGYLGCQALSEMIQFYLEEVMPQAENQDPDIKAHVNSLGENLKTLRLRLRRCHRFLPCENKSKAVEQVKNAFNKLQEKCIYKAMSEFDIFINYIEAYMTMKIRN	99.5%	–
IL-10 Glu142Cys-S48 (ligand, human, UniProt P22301 19-178, looked up, S48 on Cys 142, mature) SPGQGTQSENSCTHFPGNLPNMLRDLRDAFSRVKTFFQMKDQLDNLLLKESLLEDFKGYLGCQALSEMIQFYLEEVMPQAENQDPDIKAHVNSLGENLKTLRLRLRRCHRFLPCENKSKAVEQVKNAFNKLQEKGIYKAMSCFDIFINYIEAYMTMKIRN	–	13 fold
IL-10 Leu19Cys-S48 (ligand, human, UniProt P22301 19-178, looked up, S48 on Cys 19, mature) SPGQGTQSENSCTHFPGNCPNMLRDLRDAFSRVKTFFQMKDQLDNLLLKESLLEDFKGYLGCQALSEMIQFYLEEVMPQAENQDPDIKAHVNSLGENLKTLRLRLRRCHRFLPCENKSKAVEQVKNAFNKLQEKGIYKAMSEFDIFINYIEAYMTMKIRN	–	8 fold
IL-10 Gly17Cys-S48 (ligand, human, UniProt P22301 19-178, looked up, S48 on Cys 17, mature) SPGQGTQSENSCTHFPCNLPNMLRDLRDAFSRVKTFFQMKDQLDNLLLKESLLEDFKGYLGCQALSEMIQFYLEEVMPQAENQDPDIKAHVNSLGENLKTLRLRLRRCHRFLPCENKSKAVEQVKNAFNKLQEKGIYKAMSEFDIFINYIEAYMTMKIRN	–	15 fold
IL-10 Leu46Cys-R4-6 (ligand, human, UniProt P22301 19-178, looked up, R4-6 on Cys 46, mature) SPGQGTQSENSCTHFPGNLPNMLRDLRDAFSRVKTFFQMKDQLDNCLLKESLLEDFKGYLGCQALSEMIQFYLEEVMPQAENQDPDIKAHVNSLGENLKTLRLRLRRCHRFLPCENKSKAVEQVKNAFNKLQEKGIYKAMSEFDIFINYIEAYMTMKIRN	89.6%	–
IL-10 Glu50Cys-S48 (ligand, human, UniProt P22301 19-178, looked up, S48 on Cys 50, mature) SPGQGTQSENSCTHFPGNLPNMLRDLRDAFSRVKTFFQMKDQLDNLLLKCSLLEDFKGYLGCQALSEMIQFYLEEVMPQAENQDPDIKAHVNSLGENLKTLRLRLRRCHRFLPCENKSKAVEQVKNAFNKLQEKGIYKAMSEFDIFINYIEAYMTMKIRN	–	4 fold
IL-10 Glu142Cys-R4-12 (ligand, human, UniProt P22301 19-178, looked up, R4-12 on Cys 142, mature) SPGQGTQSENSCTHFPGNLPNMLRDLRDAFSRVKTFFQMKDQLDNLLLKESLLEDFKGYLGCQALSEMIQFYLEEVMPQAENQDPDIKAHVNSLGENLKTLRLRLRRCHRFLPCENKSKAVEQVKNAFNKLQEKGIYKAMSCFDIFINYIEAYMTMKIRN	78%	–
IL-10 Leu23Cys-S48 (ligand, human, UniProt P22301 19-178, looked up, S48 on Cys 23, mature) SPGQGTQSENSCTHFPGNLPNMCRDLRDAFSRVKTFFQMKDQLDNLLLKESLLEDFKGYLGCQALSEMIQFYLEEVMPQAENQDPDIKAHVNSLGENLKTLRLRLRRCHRFLPCENKSKAVEQVKNAFNKLQEKGIYKAMSEFDIFINYIEAYMTMKIRN	–	12 fold
IL-10 Leu46Cys-S48 (ligand, human, UniProt P22301 19-178, looked up, S48 on Cys 46, mature) SPGQGTQSENSCTHFPGNLPNMLRDLRDAFSRVKTFFQMKDQLDNCLLKESLLEDFKGYLGCQALSEMIQFYLEEVMPQAENQDPDIKAHVNSLGENLKTLRLRLRRCHRFLPCENKSKAVEQVKNAFNKLQEKGIYKAMSEFDIFINYIEAYMTMKIRN	–	22 fold
IL-10 Leu48Cys-R4-7 (ligand, human, UniProt P22301 19-178, looked up, R4-7 on Cys 48, mature) SPGQGTQSENSCTHFPGNLPNMLRDLRDAFSRVKTFFQMKDQLDNLLCKESLLEDFKGYLGCQALSEMIQFYLEEVMPQAENQDPDIKAHVNSLGENLKTLRLRLRRCHRFLPCENKSKAVEQVKNAFNKLQEKGIYKAMSEFDIFINYIEAYMTMKIRN	98.9%	–
IL-10 Leu19Cys-R4-7 (ligand, human, UniProt P22301 19-178, looked up, R4-7 on Cys 19, mature) SPGQGTQSENSCTHFPGNCPNMLRDLRDAFSRVKTFFQMKDQLDNLLLKESLLEDFKGYLGCQALSEMIQFYLEEVMPQAENQDPDIKAHVNSLGENLKTLRLRLRRCHRFLPCENKSKAVEQVKNAFNKLQEKGIYKAMSEFDIFINYIEAYMTMKIRN	95.3%	–
IL-10 Ile69Cys-S48 (ligand, human, UniProt P22301 19-178, looked up, S48 on Cys 69, mature) SPGQGTQSENSCTHFPGNLPNMLRDLRDAFSRVKTFFQMKDQLDNLLLKESLLEDFKGYLGCQALSEMCQFYLEEVMPQAENQDPDIKAHVNSLGENLKTLRLRLRRCHRFLPCENKSKAVEQVKNAFNKLQEKGIYKAMSEFDIFINYIEAYMTMKIRN	–	3 fold
IL-10 Ile158Cys-S48 (ligand, human, UniProt P22301 19-178, looked up, S48 on Cys 158, mature) SPGQGTQSENSCTHFPGNLPNMLRDLRDAFSRVKTFFQMKDQLDNLLLKESLLEDFKGYLGCQALSEMIQFYLEEVMPQAENQDPDIKAHVNSLGENLKTLRLRLRRCHRFLPCENKSKAVEQVKNAFNKLQEKGIYKAMSEFDIFINYIEAYMTMKCRN	–	9 fold
IL-10 Ile158Cys-R4-6 (ligand, human, UniProt P22301 19-178, looked up, R4-6 on Cys 158, mature) SPGQGTQSENSCTHFPGNLPNMLRDLRDAFSRVKTFFQMKDQLDNLLLKESLLEDFKGYLGCQALSEMIQFYLEEVMPQAENQDPDIKAHVNSLGENLKTLRLRLRRCHRFLPCENKSKAVEQVKNAFNKLQEKGIYKAMSEFDIFINYIEAYMTMKCRN	81.7%	–
IL-10 Leu26Cys-S48 (ligand, human, UniProt P22301 19-178, looked up, S48 on Cys 26, mature) SPGQGTQSENSCTHFPGNLPNMLRDCRDAFSRVKTFFQMKDQLDNLLLKESLLEDFKGYLGCQALSEMIQFYLEEVMPQAENQDPDIKAHVNSLGENLKTLRLRLRRCHRFLPCENKSKAVEQVKNAFNKLQEKGIYKAMSEFDIFINYIEAYMTMKIRN	–	3 fold
IL-10 Gly135Cys-S48 (ligand, human, UniProt P22301 19-178, looked up, S48 on Cys 135, mature) SPGQGTQSENSCTHFPGNLPNMLRDLRDAFSRVKTFFQMKDQLDNLLLKESLLEDFKGYLGCQALSEMIQFYLEEVMPQAENQDPDIKAHVNSLGENLKTLRLRLRRCHRFLPCENKSKAVEQVKNAFNKLQEKCIYKAMSEFDIFINYIEAYMTMKIRN	–	3 fold
IL-10 Glu151Cys-S48 (ligand, human, UniProt P22301 19-178, looked up, S48 on Cys 151, mature) SPGQGTQSENSCTHFPGNLPNMLRDLRDAFSRVKTFFQMKDQLDNLLLKESLLEDFKGYLGCQALSEMIQFYLEEVMPQAENQDPDIKAHVNSLGENLKTLRLRLRRCHRFLPCENKSKAVEQVKNAFNKLQEKGIYKAMSEFDIFINYICAYMTMKIRN	–	13 fold
IL-10 Gln42Cys-S48 (ligand, human, UniProt P22301 19-178, looked up, S48 on Cys 42, mature) SPGQGTQSENSCTHFPGNLPNMLRDLRDAFSRVKTFFQMKDCLDNLLLKESLLEDFKGYLGCQALSEMIQFYLEEVMPQAENQDPDIKAHVNSLGENLKTLRLRLRRCHRFLPCENKSKAVEQVKNAFNKLQEKGIYKAMSEFDIFINYIEAYMTMKIRN	–	18 fold
IL-10 Leu26Cys-R4-6 (ligand, human, UniProt P22301 19-178, looked up, R4-6 on Cys 26, mature) SPGQGTQSENSCTHFPGNLPNMLRDCRDAFSRVKTFFQMKDQLDNLLLKESLLEDFKGYLGCQALSEMIQFYLEEVMPQAENQDPDIKAHVNSLGENLKTLRLRLRRCHRFLPCENKSKAVEQVKNAFNKLQEKGIYKAMSEFDIFINYIEAYMTMKIRN	93.4%	–
IL-10 Leu48Cys-S48 (ligand, human, UniProt P22301 19-178, looked up, S48 on Cys 48, mature) SPGQGTQSENSCTHFPGNLPNMLRDLRDAFSRVKTFFQMKDQLDNLLCKESLLEDFKGYLGCQALSEMIQFYLEEVMPQAENQDPDIKAHVNSLGENLKTLRLRLRRCHRFLPCENKSKAVEQVKNAFNKLQEKGIYKAMSEFDIFINYIEAYMTMKIRN	–	3 fold
IL-10 Ile69Cys-R4-6 (ligand, human, UniProt P22301 19-178, looked up, R4-6 on Cys 69, mature) SPGQGTQSENSCTHFPGNLPNMLRDLRDAFSRVKTFFQMKDQLDNLLLKESLLEDFKGYLGCQALSEMCQFYLEEVMPQAENQDPDIKAHVNSLGENLKTLRLRLRRCHRFLPCENKSKAVEQVKNAFNKLQEKGIYKAMSEFDIFINYIEAYMTMKIRN	97.3%	–
IL-10 Glu50Cys-R4-12 (ligand, human, UniProt P22301 19-178, looked up, R4-12 on Cys 50, mature) SPGQGTQSENSCTHFPGNLPNMLRDLRDAFSRVKTFFQMKDQLDNLLLKCSLLEDFKGYLGCQALSEMIQFYLEEVMPQAENQDPDIKAHVNSLGENLKTLRLRLRRCHRFLPCENKSKAVEQVKNAFNKLQEKGIYKAMSEFDIFINYIEAYMTMKIRN	99.8%	–
IL-10 Leu23Cys-R4-6 (ligand, human, UniProt P22301 19-178, looked up, R4-6 on Cys 23, mature) SPGQGTQSENSCTHFPGNLPNMCRDLRDAFSRVKTFFQMKDQLDNLLLKESLLEDFKGYLGCQALSEMIQFYLEEVMPQAENQDPDIKAHVNSLGENLKTLRLRLRRCHRFLPCENKSKAVEQVKNAFNKLQEKGIYKAMSEFDIFINYIEAYMTMKIRN	101%	–
IL-10 Glu151Cys-R4-12 (ligand, human, UniProt P22301 19-178, looked up, R4-12 on Cys 151, mature) SPGQGTQSENSCTHFPGNLPNMLRDLRDAFSRVKTFFQMKDQLDNLLLKESLLEDFKGYLGCQALSEMIQFYLEEVMPQAENQDPDIKAHVNSLGENLKTLRLRLRRCHRFLPCENKSKAVEQVKNAFNKLQEKGIYKAMSEFDIFINYICAYMTMKIRN	82.5%	–
